Experimental data: paper PMC4837482, “The complex binding mode of the peptide hormone H2 relaxin to its receptor RXFP1” (Nature Communications, 2016)
Blank lines part the entries; values can stand above or below the binder they belong to. Where no end group is shown, it is not given here. The star is where a group is joined. DTPA = O=C(O)CN(CCN(CC(=O)O)CC(=O)O)CCN(CC(=O)O)CC(=O)*

What was measured:
[1] = molecular target: RXFP1 A55S, full length (human)
[2] = molecular target: RXFP1 D42A, full length (human)
[3] = molecular target: T1, RXFP1 D51A, full length (human)
T1 sequence (Q9HBX9 1-757 with D51A, looked up): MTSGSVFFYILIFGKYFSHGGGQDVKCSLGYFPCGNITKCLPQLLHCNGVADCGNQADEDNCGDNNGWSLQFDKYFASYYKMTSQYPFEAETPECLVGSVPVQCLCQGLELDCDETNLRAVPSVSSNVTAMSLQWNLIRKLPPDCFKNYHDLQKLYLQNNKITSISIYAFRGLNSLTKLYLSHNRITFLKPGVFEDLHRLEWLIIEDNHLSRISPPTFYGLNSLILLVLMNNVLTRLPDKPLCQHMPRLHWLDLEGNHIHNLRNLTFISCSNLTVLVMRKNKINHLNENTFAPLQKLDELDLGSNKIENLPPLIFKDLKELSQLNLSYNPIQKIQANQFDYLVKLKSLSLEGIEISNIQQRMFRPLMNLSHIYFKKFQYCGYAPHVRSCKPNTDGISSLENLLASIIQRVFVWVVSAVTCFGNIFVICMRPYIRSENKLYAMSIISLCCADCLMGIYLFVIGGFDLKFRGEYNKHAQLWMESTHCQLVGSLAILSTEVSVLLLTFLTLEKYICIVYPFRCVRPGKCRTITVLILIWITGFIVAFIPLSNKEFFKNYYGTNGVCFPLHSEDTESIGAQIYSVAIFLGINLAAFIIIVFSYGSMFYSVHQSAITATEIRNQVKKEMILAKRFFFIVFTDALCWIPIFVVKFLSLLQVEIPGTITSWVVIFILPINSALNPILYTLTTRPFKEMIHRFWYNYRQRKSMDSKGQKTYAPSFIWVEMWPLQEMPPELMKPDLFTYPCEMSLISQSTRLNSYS

[4] = molecular target: RXFP1 E67A, full length (human)
[5] = molecular target: RXFP1 F50A, full length (human)
[6] = molecular target: RXFP1 F54A, full length (human)
[7] = molecular target: RXFP1 F66A, full length (human)
[8] = molecular target: RXFP1 G41A, full length (human)
[9] = molecular target: RXFP1 N43A, full length (human)
[10] = molecular target: RXFP1 W46A, full length (human)
[11] = molecular target: T1, RXFP1 D51A, full length (human); assay: europium-labelled ligand saturation binding on cells (time-resolved fluorescence); HEK293T cells transiently transfected with receptor, 96-well plates; increasing Eu-H2 relaxin (maximum 15 nM) with or without 1 μM unlabelled H2 relaxin, 1 h, room temperature; 20 mM HEPES pH 7.5, […] CaCl2, 50 mM NaCl, 0.01% NaN3, 1% BSA; one-site fit
[12] = molecular target: RXFP1 F50A, full length (human); assay: as above
[13] = molecular target: RXFP1 F54A, full length (human); assay: as above
[14] = molecular target: RXFP1 G41A, full length (human); assay: as above
[15] = molecular target: RXFP1 G45A, full length (human); assay: as above
[16] = molecular target: RXFP1 N43A, full length (human); assay: as above
[17] = molecular target: RXFP1 N44A, full length (human); assay: as above
[18] = molecular target: RXFP1 Q49A/F50A, full length (human); assay: as above
[19] = molecular target: RXFP1 Y57A, full length (human); assay: as above
[20] = molecular target: RXFP1 Y58A, full length (human); assay: as above

H2 relaxin-induced cAMP response (pCRE β-galactosidase reporter, HEK293T), pEC50 [1]: 11.4 pEC50
H2 relaxin-induced cAMP response (pCRE β-galactosidase reporter, HEK293T), pEC50 [2]: < 6 pEC50
H2 relaxin-induced cAMP response (pCRE β-galactosidase reporter, HEK293T), pEC50 [3]: 11 pEC50
H2 relaxin-induced cAMP response (pCRE β-galactosidase reporter, HEK293T), pEC50 [4]: 11.1 pEC50
H2 relaxin-induced cAMP response (pCRE β-galactosidase reporter, HEK293T), pEC50 [5]: 9.45 pEC50
H2 relaxin-induced cAMP response (pCRE β-galactosidase reporter, HEK293T), pEC50 [6]: 10.2 pEC50
H2 relaxin-induced cAMP response (pCRE β-galactosidase reporter, HEK293T), pEC50 [7]: 11.2 pEC50
H2 relaxin-induced cAMP response (pCRE β-galactosidase reporter, HEK293T), pEC50 [8]: 11.1 pEC50
H2 relaxin-induced cAMP response (pCRE β-galactosidase reporter, HEK293T), pEC50 [9]: 9.06 pEC50
H2 relaxin-induced cAMP response (pCRE β-galactosidase reporter, HEK293T), pEC50 [10]: 7.02 pEC50
B1: H2 relaxin (ligand, human)
chain 1: QLYSALANKCCHVGCTKRSLARFC
chain 2: DSWMEEVIKLCGRELVRAQIAICGMSTWS

B2: Europium-labelled H2 relaxin (ligand, human)
chain 1: {DTPA}-QLYSALANKCCHVGCTKRSLARFC
chain 2: DSWMEEVIKLCGRELVRAQIAICGMSTWS
modifications: not fully specified; ends and bridges not checked; also: DTPA cage loaded with Eu^3+
notes: A chain of human gene-2 (H2) relaxin; numbers count on: the A chain; B chain of human gene-2 (H2) relaxin; numbers count on: the B chain; also called Eu-H2 relaxin; Eu-H2
Kd [11]: 0.73 nM
Kd [12]: 6.48 nM
Kd [13]: 2.43 nM
Kd [14]: 0.95 nM
Kd [15]: 19.1 nM
Kd [16]: 2.55 nM
Kd [17]: 0.81 nM
Kd [18]: 6.74 nM
Kd [19]: 0.81 nM
Kd [20]: 1.56 nM
